In paper PMC5995969, “Structural basis for the regulation of human 5,10-methylenetetrahydrofolate reductase by phosphorylation and S-adenosylmethionine inhibition” (Nature Communications, 2018):

Columns and labels:
[1] = test system: NC(=O)C1=CN([C@@H]2O[C@H](COP(=O)(O)OP(=O)(O)OC[C@H]3O[C@@H](n4cnc5c(N)ncnc54)[C@H](OP(=O)(O)O)[C@@H]3O)[C@@H](O)[C@H]2O)C=CC1; experiment: purified protein; details: FAD catalytic domain; binding site shared with CH2-THF, next to FAD; 46.0 °C
[2] = test system: Nc1nc2c(c(=O)[nH]1)N1CN(c3ccc(C(=O)N[C@@H](CCC(=O)O)C(=O)O)cc3)CC1CN2; experiment: purified protein; details: FAD catalytic domain; binding site shared with NAD(P)H, next to FAD; 46.0 °C

## 5,10-methylenetetrahydrofolate reductase (MTHFR) (Homo sapiens)
[1]
  Km: 23.5 µM
[2]
  Km: 22.4 µM
